Drawing on article PMC2254190, “T Cell Receptor Engagement Triggers Its CD3ε and CD3ζ Subunits to Adopt a Compact, Locked Conformation” (PLoS ONE, 2008), this text covers Kd for 1 molecule.

In this test the target is SH3.1 domain of Nck (NMR work, in preparation) (UniProt P16333 2-61). The test can be described thus: not stated; affinity told in the discussion without method.

B1: CD3ε polypeptide (NMR work, in preparation) (domain or fragment)
chain: KNRKAKAKPVTRGAGAGGRQRGQNKERPPPVPNPDYEPIRKGQRDLYSGLNQRRI
modifications: The construct is not described (unpublished NMR work, 'in preparation'). The whole cytoplasmic tail, by UniProt topology, is used because it holds the PPS with its upstream and downstream charged …
The Kd is the equilibrium constant for the complex coming apart. A high value points to weaker binding. Take B1: the Kd was roughly 100 nM.
